Molecular target: Claudin 18 splice variant 2 (CLDN18.2), human (human)
Assay: cell-based or functional assay

IMAB362-mediated ADCC on NUGC-4 cells, EC50 on chemotherapy-pretreated versus untreated target cells: ~0.33 fraction of the EC50 on untreated cells
B1: IMAB362 (antibody, V domains shown)
VH: QVQLQQPGAELVRPGASVKLSCKASGYTFTSYWINWVKQRPGQGLEWIGNIYPSDSYTNYNQKFKDKATLTVDKSSSTAYMQLSSPTSEDSAVYYCTRSWRGNSFDYWGQGTTLTVSS
VL: DIVMTQSPSSLTVTAGEKVTMSCKSSQSLLNSGNQKNYLTWYQQKPGQPPKLLIYWASTRESGVPDRFTGSGSGTDFTLTISSVQAEDLAVYYCQNDYSYPFTFGSGTKLEIKR
modifications: In the in vivo imaging of Example 14 the antibody carried a Dyelight 680 label, site not given; unlabelled in the flow cytometry.
